Biological target: S. epidermidis Csm3 (SeCsm3) in the Cas10–Csm effector complex (S. epidermidis RP62a)
Experiment: cryo-EM structure

S. epidermidis Csm3 (SeCsm3) in the Cas10–Csm effector complex (natural protein)
stoichiometry N: 5

Reference: publication PMC6468305
